Laboratory results published in US20160340402A1 (ALMAC DISCOVERY, published 2016).

Target: the molecule itself
Experiment: SDS PAGE and native PAGE, non-reducing against reducing conditions (self-association)

B1: full length recombinant His-tagged FKBP-L protein (variant Thr181, Gly186), N-terminal poly-histidine tag (other)
chain: MRGSHHHHHHGMASMTGGQQMGRDLYDDDDKDRWGSMETPPVNTIGEKDTSQPQQEWEKNLRENLDSVIQIRQQPRDPPTETLELEVSPDPASQILEHTQGAEKLVAELEGDSHKSHGSTSQMPEALQASDLWYCPDGSFVKKIVIRGHGLDKPKLGSCCRVLALGFPFGSGPPEGWTELTMGVGPWREETWGELIEKCLESMCQGEEAELQLPGHTGPPVGLTLASFTQGRDSWELETSEKEALAREERARGTELFRAGNPEGAARCYGRALRLLLTLPPPGPPERTVLHANLAACQLLLGQPQLAAQSCDRVLEREPGHLKALYRRGVAQAALGNLEKATADLKKVLAIDPKNRAAQEELGKVVIQGKNQDAGLAQGLRKMFG
notes: also called recombinant FKBP-L; rFKBP-L
binding result: binds
